Patent publication US20250346679A1 (INVOX PHARMA, published 2025)

Legend:
[1] = target: T1, cPD-L1-His (Acro Biosystems, PD1-C52H4) (cynomolgus, UniProt Q9NZQ7 19-238 (human entry)); experiment: SPR, mAb^2 captured on Protein A chip, antigen in flow
T1 construct: bought; also called Cyno PD-L1-His; Cynomolgus PD-L1-His; not shown: His tag of the bought product
Description: (§1) Briefly, the anti-human CD137/PD-L1 mAb², diluted in HBS-EP buffer (GE Healthcare, BR100188) at 2 μg/ml, were injected individually on flows cell 2, 3 and 4 of a Protein A chip (GE Healthcare, 29127556) at 30 μl/min to achieve a final response of approximately 110 RU. Two different recombinant human PD-L1 antigens were used i.e. hPD-L1-His-Avi (see Example 1.3 for antigen details) and biotinylated hPD-L1-Avi-His (Acrobiosystems, PD-1-H82E5). Human and cynomolgus PD-L1-His (Acrobiosystems, PD-1-C52H4) antigens, diluted in HBS-EP buffer, were injected on flow cell 1, 2, 3 or 4 as appropriate at a concentration range of 81 nM to 0.037 nM with 3-fold dilutions for 4 min at 75 μl/min and then allowed to dissociate in buffer for 10 min. Regeneration was achieved by injecting 10 mM glycine-HCL pH1.5 (GE Healthcare, Human Antibody Capture Kit, BR00356) for 30 sec at a rate of 30 μl/min. Subtracted data (flow cell 2−flow cell 1, flow cell 3−flow cell 1, or flow cell 4−flow cell 1) were analysed using BIAevaluation 3.2 Software (GE Healthcare) to identify binding using the model 1:1 binding with mass transfer, with refractive index (RI) constant 0.

[2] = target: T2, biotinylated hPD-L1-Avi-His (Acro Biosystems, PD1-H82E5) (human, UniProt Q9NZQ7 19-238, biotinylated); experiment: as above
T2 construct: bought; also called Human PD-L1-His; not shown: Avi and His tags of the bought product
Description: as §1

[3] = target: human PD-L1, cell-surface (human, UniProt Q9NZQ7 19-290); experiment: cell-based or functional assay
cCD137-mFc-Avi = target: T3, cCD137-mFc-Avi (cynomolgus; mouse); experiment: SPR, mAb^2 captured by anti-human Fab, antigen in flow
T3 construct: also called cynomolgus CD137-mFc-Avi; Cyno CD137-mFc-Avi; not shown: mouse IgG2a Fc domain (mIgG2a Fc)
T3 chain: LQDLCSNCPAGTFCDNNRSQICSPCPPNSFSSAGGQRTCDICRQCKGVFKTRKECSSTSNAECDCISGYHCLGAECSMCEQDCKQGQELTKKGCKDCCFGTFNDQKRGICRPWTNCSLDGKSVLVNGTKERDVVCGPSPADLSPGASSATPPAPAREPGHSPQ
Description: (§2) The binding of the anti-human CD137/PD-L1 mAb² to recombinant dimeric human and cynomolgus CD137 antigens was also measured by SPR using a Biacore T200 processing unit (GE Healthcare).
(§3) Briefly, 20 μg/ml anti-human Fab antibody (GE Healthcare, Human Fab Capture kit 28958325) was coated on flow cells 1, 2, 3 and 4 of a Biacore sensor S chip CM5 (GE Healthcare, BR100530) achieving a final response of approximately 5000 RU. […] The recombinant dimeric antigens, human CD137-mFc-Avi or cynomolgus CD137-mFc-Avi (see Example 1.1 for antigen details) diluted in HBS-EP buffer, were injected on flow cell 1, 2, 3 or 4 as appropriate at a concentration range of 81 nM to 0.037 nM with 3-fold dilutions for 4 minutes at 70 μl/min and then allowed to dissociate in buffer for 10 minutes. Regeneration was achieved by injecting 10 mM glycine pH 2.1 (GE Healthcare, Human Fab Capture kit 28958325) for 60 seconds at a rate of 30 μl/min. Data analysis was performed as described in Example 9.1.

hCD137-mFc-Avi = target: T4, hCD137-mFc-Avi (human; mouse, UniProt Q07011 24-186, biotin on the Avi sequence where the biotinylated form was used); experiment: as above
T4 construct: also called human CD137-mFc-Avi; dimeric human CD137; not shown: mouse IgG2a Fc domain (mIgG2a Fc)
Description: as §2, §3

[4] = target: T5, cynomolgus CD137, cell-surface (cynomolgus, UniProt Q07011 24-255 (human entry)); experiment: cell-based or functional assay
T5 chain: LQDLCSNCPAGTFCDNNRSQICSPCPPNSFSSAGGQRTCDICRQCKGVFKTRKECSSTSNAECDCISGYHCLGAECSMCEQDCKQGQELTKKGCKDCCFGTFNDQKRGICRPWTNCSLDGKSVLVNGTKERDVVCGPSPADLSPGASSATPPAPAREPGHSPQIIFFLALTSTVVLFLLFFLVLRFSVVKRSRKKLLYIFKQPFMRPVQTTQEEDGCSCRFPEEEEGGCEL

[5] = target: human CD137, cell-surface (human, UniProt Q07011 24-255); experiment: cell-based or functional assay

T4 sequence (Q07011 24-186): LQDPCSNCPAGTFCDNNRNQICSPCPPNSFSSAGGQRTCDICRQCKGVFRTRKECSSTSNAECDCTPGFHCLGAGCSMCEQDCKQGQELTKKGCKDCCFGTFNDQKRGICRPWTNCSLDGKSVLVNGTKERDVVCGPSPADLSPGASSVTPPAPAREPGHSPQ
T1 sequence (Q9NZQ7 other isoform, or with tags, fused parts or gaps): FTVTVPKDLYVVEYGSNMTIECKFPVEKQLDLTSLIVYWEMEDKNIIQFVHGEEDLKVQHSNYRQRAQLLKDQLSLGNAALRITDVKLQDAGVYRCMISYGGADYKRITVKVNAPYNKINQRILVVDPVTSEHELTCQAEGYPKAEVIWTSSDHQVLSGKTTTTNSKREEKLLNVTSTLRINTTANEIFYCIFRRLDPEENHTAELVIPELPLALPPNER
Chain of human PD-L1, cell-surface (Q9NZQ7 19-290): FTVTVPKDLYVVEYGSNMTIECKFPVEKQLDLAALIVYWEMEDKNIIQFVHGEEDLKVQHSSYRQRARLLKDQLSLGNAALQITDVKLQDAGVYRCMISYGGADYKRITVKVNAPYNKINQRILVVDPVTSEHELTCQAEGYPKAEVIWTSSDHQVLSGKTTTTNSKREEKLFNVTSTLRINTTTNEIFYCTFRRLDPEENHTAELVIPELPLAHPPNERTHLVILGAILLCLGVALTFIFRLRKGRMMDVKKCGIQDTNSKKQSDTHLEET
T2 sequence (Q9NZQ7 19-238): as the sequence (Q9NZQ7 other isoform, or with tags, fused parts or gaps) above, with T33A, S34A, N62S, Q68R, R82Q, L173F, A185T, I192T, L215H counted along it

Binder	Kd [1] [nM]	Kd [2] [nM]	EC50 (nM), IFN-γ release, human MLR [3] [nM]	Emax (pg/ml), IFN-γ release, human MLR [3] [pg/mL]	Kd (cCD137-mFc-Avi) [nM]	Kd (hCD137-mFc-Avi) [nM]	EC50 (nM) (crosslinked), mIL-2 release, DO11.10.cCD137 with HEK.cyPD-L1 [4]	Emax (pg/ml) (crosslinked), mIL-2 release, DO11.10.cCD137 with HEK.cyPD-L1 [4] [pg/mL]	EC50 (nM), hIL-2 release, CD8+ T cells, donor 171115A, HEK.hPD-L1 XL [5] [nM]	EC50 (nM), hIL-2 release, CD8+ T cells, donor 171115A, MDA-MB-231 XL [5] [nM]	EC50 (nM), hIL-2 release, CD8+ T cells, donor 171115B, HEK.hPD-L1 XL [5] [nM]	EC50 (nM), hIL-2 release, CD8+ T cells, donor 171115B, MDA-MB-231 XL [5] [nM]
FS22-172-003-AA/E05v2 (bispecific antibody, human IgG1, kappa, L234A L235A) heavy: EVQLVQSGAEVKRPGASVKVSCKASGYTFTSYGISWVRQAPGQGLEWMGWISAYSGGTNYAQKLQGRVTMTTDTSTSTAYMELRSLRSDDTAVYYCARDLFPTIFGVSYYYYWGQGTLVTVSSASTKGPSVFPLAPSSKSTSGGTAALGCLVKDYFPEPVTVSWNSGALTSGVHTFPAVLQSSGLYSLSSVVTVPSSSLGTQTYICNVNHKPSNTKVDKKVEPKSCDKTHTCPPCPAPEAAGGPSVFLFPPKPKDTLMISRTPEVTCVVVDVSHEDPEVKFNWYVDGVEVHNAKTKPREEQYNSTYRVVSVLTVLHQDWLNGKEYKCKVSNKALPAPIEKTISKAKGQPREPQVYTLPPSRDELPYIIPPYNQVSLTCLVKGFYPSDIAVEWESNGQPENNYKTTPPVLDSDGSFFLYSKLTVGADRWLEGNVFSCSVMHEALHNHYTQKSLSLSPG light: DIQMTQSPSTLSASVGDRVTITCRASQSISGRLAWYQQKPGKAPNLLIYEASNLESGVPSRFSGSGSGTEFTLTISSLQPEDFATYYCQQSYSTPRVTFGQGTKVEIKRTVAAPSVFIFPPSDEQLKSGTASVVCLLNNFYPREAKVQWKVDNALQSGNSQESVTEQDSKDSTYSLSSTLTLSKADYEKHKVYACEVTHQGLSSPVTKSFNRGEC	0.59	0.5	0.03	2650	1	1.5	0.08	10500	0.27	0.02	0.19	0.02
FS22-172-003-AA/G12v2 (bispecific antibody, human IgG1, kappa, L234A L235A) heavy: EVQLVQSGAEVKRPGASVKVSCKASGYTFTSYGISWVRQAPGQGLEWMGWISAYSGGTNYAQKLQGRVTMTTDTSTSTAYMELRSLRSDDTAVYYCARDLFPTIFGVSYYYYWGQGTLVTVSSASTKGPSVFPLAPSSKSTSGGTAALGCLVKDYFPEPVTVSWNSGALTSGVHTFPAVLQSSGLYSLSSVVTVPSSSLGTQTYICNVNHKPSNTKVDKKVEPKSCDKTHTCPPCPAPEAAGGPSVFLFPPKPKDTLMISRTPEVTCVVVDVSHEDPEVKFNWYVDGVEVHNAKTKPREEQYNSTYRVVSVLTVLHQDWLNGKEYKCKVSNKALPAPIEKTISKAKGQPREPQVYTLPPSRDELPYIIPPYNQVSLTCLVKGFYPSDIAVEWESNGQPENNYKTTPPVLDSDGSFFLYSKLTVGADRWLEGNVFSCSVMHEALHNHYTQKSLSLSPG light: DIQMTQSPSTLSASVGDRVTITCRASQSISGRLAWYQQKPGKAPNLLIYEASNLESGVPSRFSGSGSGTEFTLTISSLQPEDFATYYCQQSYSWPRTFGQGTKVEIKRTVAAPSVFIFPPSDEQLKSGTASVVCLLNNFYPREAKVQWKVDNALQSGNSQESVTEQDSKDSTYSLSSTLTLSKADYEKHKVYACEVTHQGLSSPVTKSFNRGEC	0.53	0.49	–	–	1.8	2.2	0.06	11200	0.21	0.02	0.22	0.01
FS22-053-008-AA/E05v2 (bispecific antibody, human IgG1, kappa, L234A L235A) heavy: EVQLVQSGAEVKRPGASVKVSCKASGYTFTSYGISWVRQAPGQGLEWMGWISAYSGGTNYAQKLQGRVTMTTDTSTSTAYMELRSLRSDDTAVYYCARDLFPTIFGVSYYYYWGQGTLVTVSSASTKGPSVFPLAPSSKSTSGGTAALGCLVKDYFPEPVTVSWNSGALTSGVHTFPAVLQSSGLYSLSSVVTVPSSSLGTQTYICNVNHKPSNTKVDKKVEPKSCDKTHTCPPCPAPEAAGGPSVFLFPPKPKDTLMISRTPEVTCVVVDVSHEDPEVKFNWYVDGVEVHNAKTKPREEQYNSTYRVVSVLTVLHQDWLNGKEYKCKVSNKALPAPIEKTISKAKGQPREPQVYTLPPSRDELNPPYLFSNQVSLTCLVKGFYPSDIAVEWESNGQPENNYKTTPPVLDSDGSFFLYSKLTVDYWRWLEGNVFSCSVMHEALHNHYTQKSLSLSPG light: DIQMTQSPSTLSASVGDRVTITCRASQSISGRLAWYQQKPGKAPNLLIYEASNLESGVPSRFSGSGSGTEFTLTISSLQPEDFATYYCQQSYSTPRVTFGQGTKVEIKRTVAAPSVFIFPPSDEQLKSGTASVVCLLNNFYPREAKVQWKVDNALQSGNSQESVTEQDSKDSTYSLSSTLTLSKADYEKHKVYACEVTHQGLSSPVTKSFNRGEC	0.58	0.47	0.02	2800	1.1	2.8	0.06	8060	0.16	0.01	0.11	0.02
